Source: patent publication US5158935A, “Human epidermal growth factor having substitution at position 11” (Chiron Corporation, priority 1989, dated 1992)

What was measured:
[1] = forms isolated from recombinant yeast culture; cited from earlier work
[2] = stored as a lyophilized powder; cited from earlier work
[3] = citrate buffer, pH 3, 45° C.
Experimental: Solutions of rhEGF and rhEGF-Glu11 were prepared in citrate buffer, pH 3, and were maintained at 45° C. Aliquots were drawn on days 0, 1, 7, and 15, and were analyzed by RP-HPLC (as described in Example 2).

| Compound | EGF activity [1] | stability on storage [2] | degradation products versus original protein by RP-HPLC ([3]; by day 15) | degradation seen in RP-HPLC chromatograms ([3]; days 0, 1, 7 and 15) |
| --- | --- | --- | --- | --- |
| EGF-D: 52-amino acid sequence obtained by removing the C-terminal arg of EGF (NSDSECPLSHDGYCLHDGVCMYIEALDKYACNCVVGYIGERCQYRDLKWWEL; not fully specified; Epidermal growth factor; UniProt P01133 971-1022, looked up, fragment) | full EGF activity | stable |  |  |
| CC[C@H](C)[C@@H]1NC(=O)[C@H](Cc2ccc(O)cc2)NC(=O)CNC(=O)[C@H](C(C)C)NC(=O)[C@H](C(C)C)NC(=O)[C@@H](NC(=O)[C@H](CC(N)=O)NC(=O)[C@@H]2CSSC[C@@H]3NC(=O)[C@H](Cc4ccc(O)cc4)NC(=O)CNC(=O)[C@H](CC(=O)O)NC(=O)[C@H](Cc4c[nH]cn4)NC(=O)[C@H](CO)NC(=O)[C@H](CC(C)C)NC(=O)[C@@H]4CCCN4C(=O)[C@@H](NC(=O)[C@H](CCC(=O)O)NC(=O)[C@H](CO)NC(=O)[C@H](CC(=O)O)NC(=O)[C@H](CO)NC(=O)[C@@H](N)CC(N)=O)CSSC[C@H](NC(=O)[C@H](C(C)C)NC(=O)CNC(=O)[C@H](CC(=O)O)NC(=O)[C@H](Cc4c[nH]cn4)NC(=O)[C@H](CC(C)C)NC3=O)C(=O)N[C@@H](CCSC)C(=O)N[C@@H](Cc3ccc(O)cc3)C(=O)N[C@@H]([C@@H](C)CC)C(=O)N[C@@H](CCC(=O)O)C(=O)N[C@@H](C)C(=O)N[C@@H](CC(C)C)C(=O)N[C@@H](CC(=O)O)C(=O)N[C@@H](CCCCN)C(=O)N[C@@H](Cc3ccc(O)cc3)C(=O)N[C@@H](C)C(=O)N2)CSSC[C@@H](C(=O)N[C@@H](CCC(N)=O)C(=O)N[C@@H](Cc2ccc(O)cc2)C(=O)N[C@@H](CCCNC(=N)N)C(=O)N[C@@H](CC(=O)O)C(=O)N[C@@H](CC(C)C)C(=O)N[C@@H](CCCCN)C(=O)N[C@@H](Cc2c[nH]c3ccccc23)C(=O)N[C@@H](Cc2c[nH]c3ccccc23)C(=O)N[C@@H](CCC(=O)O)C(=O)N[C@@H](CC(C)C)C(=O)N[C@@H](CCCNC(=N)N)C(=O)O)NC(=O)[C@H](CCCNC(=N)N)NC(=O)[C@H](CCC(=O)O)NC(=O)CNC1=O [EGF-Asp11] |  |  | the degradation products outweighed the original rhEGF | rapidly degraded to rhEGF-isoaspartyl11 |
| EGF-B: EGF-D wherein the C-terminal arg-leu has been removed (NSDSECPLSHDGYCLHDGVCMYIEALDKYACNCVVGYIGERCQYRDLKWWE; not fully specified; Epidermal growth factor; UniProt P01133 971-1021, looked up, fragment) | full EGF activity |  |  |  |
